What was measured:
Experiment in all cases: purified protein
[1] = system: CCCC(=O)Oc1ccc([N+](=O)[O-])cc1; details: 50 mM Tris-HCl pH 8.0, 1% acetonitrile
[2] = system: CC(=O)Oc1ccc([N+](=O)[O-])cc1; details: 50 mM Tris-HCl pH 8.0, 1% acetonitrile
[3] = system: O=C(O)c1ccccc1C(=O)OCc1ccccc1; details: 50 mM Tris-HCl pH 8.0, 37 °C, substrate 0.1-10 mM (unit defined at 25 °C)
COC(=O)c1ccccc1C(=O)OC = details: 50 mM Tris-HCl pH 8.0, 37 °C, substrate 0.1-10 mM (unit defined at 25 °C)
[4] = system: CCCCOC(=O)c1ccccc1C(=O)OCc1ccccc1; details: 50 mM Tris-HCl pH 8.0, 37 °C, substrate 0.1-10 mM (unit defined at 25 °C)
CCOC(=O)c1ccccc1C(=O)O = details: 50 mM Tris-HCl pH 8.0, 37 °C, substrate 0.1-10 mM (unit defined at 25 °C)
[5] = system: CCCCCC(=O)Oc1ccc([N+](=O)[O-])cc1; details: 50 mM Tris-HCl pH 8.0, 1% acetonitrile
CCCCOC(=O)c1ccccc1C(=O)O = details: 50 mM Tris-HCl pH 8.0, 37 °C, substrate 0.1-10 mM (unit defined at 25 °C)
[6] = system: CCCCOC(=O)c1ccccc1C(=O)OCCCC; details: 50 mM Tris-HCl pH 8.0, 37 °C, substrate 0.1-10 mM (unit defined at 25 °C)
[7] = system: O=C(Oc1ccccc1)c1ccccc1C(=O)Oc1ccccc1; details: 50 mM Tris-HCl pH 8.0, 37 °C, substrate 0.1-10 mM (unit defined at 25 °C)
[8] = system: O=C(O)c1ccccc1C(=O)Oc1ccccc1; details: 50 mM Tris-HCl pH 8.0, 37 °C, substrate 0.1-10 mM (unit defined at 25 °C)
COC(=O)c1ccccc1C(=O)O = details: 50 mM Tris-HCl pH 8.0, 37 °C, substrate 0.1-10 mM (unit defined at 25 °C)

EstM2 (uncultured bacterium) gave a Km [1] of 440 ± 10 µM, a Vmax [1] of 905 µmol/min/mg and a kcat/Km [1] of 1.46e+06 ± 34200 M⁻¹ s⁻¹. It also gave a Km [2] of 410 ± 10 µM, a Vmax [2] of 748 µmol/min/mg and a kcat/Km [2] of 1.29e+06 ± 32500 M⁻¹ s⁻¹. The Km [3] was 1120 ± 80 µM, the Vmax [3] was 43.8 µmol/min/mg and the kcat/Km [3] was 28000 ± 2000 M⁻¹ s⁻¹. It also gave a Km (COC(=O)c1ccccc1C(=O)OC) of 1020 ± 80 µM, a Vmax (COC(=O)c1ccccc1C(=O)OC) of 42.1 µmol/min/mg and a kcat/Km (COC(=O)c1ccccc1C(=O)OC) of 29600 ± 2300 M⁻¹ s⁻¹. The Km [4] was 640 ± 40 µM, the Vmax [4] was 57.6 µmol/min/mg and the kcat/Km [4] was 64500 ± 3800 M⁻¹ s⁻¹. It also gave a Km (CCOC(=O)c1ccccc1C(=O)O) of 1730 ± 130 µM, a Vmax (CCOC(=O)c1ccccc1C(=O)O) of 54.2 µmol/min/mg and a kcat/Km (CCOC(=O)c1ccccc1C(=O)O) of 22500 ± 1600 M⁻¹ s⁻¹. For the same substance, the Km [5] was 280 ± 20 µM, the Vmax [5] was 71.4 µmol/min/mg and the kcat/Km [5] was 183000 ± 10700 M⁻¹ s⁻¹. It also gave a Km (CCCCOC(=O)c1ccccc1C(=O)O) of 1260 ± 80 µM, a Vmax (CCCCOC(=O)c1ccccc1C(=O)O) of 56.7 µmol/min/mg and a kcat/Km (CCCCOC(=O)c1ccccc1C(=O)O) of 32200 ± 2200 M⁻¹ s⁻¹. For the same substance, the Km [6] was 620 ± 40 µM, the Vmax [6] was 72.9 µmol/min/mg and the kcat/Km [6] was 84200 ± 5100 M⁻¹ s⁻¹. It also gave a Vmax [7] of 45.1 µmol/min/mg, a kcat/Km [7] of 54800 ± 3600 M⁻¹ s⁻¹ and a Km [8] of 1060 ± 80 µM. The Vmax [8] was 37.6 µmol/min/mg, the kcat/Km [8] was 25400 ± 1900 M⁻¹ s⁻¹ and the Km (COC(=O)c1ccccc1C(=O)O) was 1950 ± 150 µM. It also gave a Vmax (COC(=O)c1ccccc1C(=O)O) of 41.3 µmol/min/mg and a kcat/Km (COC(=O)c1ccccc1C(=O)O) of 15200 ± 1200 M⁻¹ s⁻¹.
